These results are taken from the supplement of paper PMC9170038.

In this data set the test system is K4 kissing-loop RNA reporter. Kind of data set: apparent KD of K4 kissing-loop reporter; higher = weaker reporter binding. Particulars: Eterna round: R107. The protocol:
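RNA-MaP round R107: designed RNA switches with theophylline, tryptophan, arginine or FMN aptamers are transcribed on-chip within common flanks. They are titrated with a labelled K4 kissing-loop RNA reporter in RNA-MaP buffer (100 mM Tris pH 7.5, 80 mM KCl, 4 mM MgCl2), without ligand or with the indicated ligand. Median apparent KD per design.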

The mark [1] stands for this setting: input ligand: theophylline 20 uM.
[2] abbreviates: input ligand: tryptophan 2.4 mM.
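Also: bound reporter read as fluorescence of individual clusters on recovered sequencing chips by microscopy, with normalized cluster intensities fitted with a binding model.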

Turning to “AGAUCUGUAACAGAUACCAGAGGACGAUGAUCGGAUAGUGAUGUUAUCUGUCAGUCGUCGCUCCCUUGGCAGCUGUUACAGAUCA [Omei KL Theo B SS B v1]”, the “apparent KD of K4 kissing-loop reporter” value amounted to 0.176 µM (input ligand: FMN 200 uM); 0.147 µM (input ligand: arginine 13.2 mM); 0.174 µM (input ligand: none); 0.135 µM under setting [1]; 0.157 µM under setting [2].
“AGAUUCGACACGGCCGCCACUCGUGGUGGAUUACCGAGUGUCGAAGUUGAGUGAUGUUCAAGUACGAGGACCGGGUGUUGAGUCU [KL-XTryp-B9 #analogue]”: the “apparent KD of K4 kissing-loop reporter” value came to 0.193 µM (input ligand: FMN 200 uM); 0.204 µM (input ligand: arginine 13.2 mM); 0.198 µM (input ligand: none); 0.163 µM under setting [1]; 0.435 µM under setting [2].
For “AGCGACUCUUCGGAGUCGCGGCUAAGGGAUACCAGUGAUGUUGGUCACCCUUGGCAGCCCAGAAGCCAAGCCACCAAAGGUGGCA [Omei KL Theo A Exc A v5]”, in that order: 0.104 µM, 0.0986 µM, 0.111 µM, 0.114 µM and 0.113 µM.
As for “AGCGAGAUACUUGUCUAGUAUACUACAGAUACCAGACAAGUACUAGUCCCUUGGCAGCUGUAGAUCGAGUGAUGUUCGAGUCGCU [Theo A SS t1]”, the “apparent KD of K4 kissing-loop reporter” value (input ligand: FMN 200 uM) turned out to be 0.527 µM; the “apparent KD of K4 kissing-loop reporter” value (input ligand: arginine 13.2 mM) was 0.415 µM; the “apparent KD of K4 kissing-loop reporter” value (input ligand: none) amounted to 0.516 µM; the “apparent KD of K4 kissing-loop reporter” value under setting [1] stood at 0.43 µM; the “apparent KD of K4 kissing-loop reporter” value under setting [2] stood at 0.389 µM.
For “AGCGAGUGAUGUUCGCUGAUCAUGUGAAGUUAGGAUAUAUACUUGCAUAGAAGGAACUAUUACAUGACAUUAGAGGCAGUAGUUC [FMN A SS t7b]” the same measures were 0.165 µM, 0.173 µM, 0.167 µM, 0.171 µM and 0.128 µM.
For “AGCUAGUACGCAGGAUAUCGAACAUCAUUUAGUGAGAUCGAGUGAUGUUCGAUCACGUCUUCAGUUCGAGAAGGGCGUACUAGCA [#01 K4 FMN B Same State]”, in that order: 0.349 µM, 0.423 µM, 1.09 µM, 1.22 µM and 0.777 µM.
With “AGCUCACACGGAAGGAGCGGAUAGAACUGACAGUUGGGCUCAAGUGAUGUUUGGGCUUGAAUCCAGGUAGGUCGCCGUGUGAGCU [Arg B SS t12]”, the “apparent KD of K4 kissing-loop reporter” value (input ligand: FMN 200 uM) worked out at 0.136 µM; the “apparent KD of K4 kissing-loop reporter” value (input ligand: arginine 13.2 mM) was found to be 0.0963 µM; the “apparent KD of K4 kissing-loop reporter” value (input ligand: none) stood at 0.109 µM; the “apparent KD of K4 kissing-loop reporter” value under setting [1] turned out to be 0.123 µM; the “apparent KD of K4 kissing-loop reporter” value under setting [2] came to 0.123 µM.
Regarding “AGCUCAGAGUGACUCGAUAAGAGUCACAAACGAGGACCGGUACGGCCGCCACUCGAAAUAACGAGAGUGAUGUUCUUGCUGAGCA [FiskerMod 7 - Jieux - Same State Tryptophan A]”, the “apparent KD of K4 kissing-loop reporter” value came to 1.32 µM (input ligand: FMN 200 uM); 0.487 µM (input ligand: arginine 13.2 mM); 0.976 µM (input ligand: none); 0.631 µM under setting [1]; 0.386 µM under setting [2].
For “AGGCACGAGCAAGGAUAUCGAGUAGAGUGAUGUUCUGCCUGGGUUGGCGCGGAAGGGCCUUCCCAGCGAGAAGGUGCUCGUGCCU [#2 Same State - FMN A Attempt #10 (HarryS)]”, in that order: 0.293 µM, 0.569 µM, 0.838 µM, 0.615 µM and 0.786 µM.
With “AGGCACGAGCAAGGAUAUUGAGUAGAGUGAUGUUCUGCCUGGGUUGGCUCGCAAGAGCCUUCUCAGCGAGAAGGUGCUCGUGCCU [#2 Same State - FMN A Attempt #25 (HarryS)]”, the “apparent KD of K4 kissing-loop reporter” value (input ligand: FMN 200 uM) came to 0.286 µM; the “apparent KD of K4 kissing-loop reporter” value (input ligand: arginine 13.2 mM) was found to be 0.471 µM; the “apparent KD of K4 kissing-loop reporter” value (input ligand: none) was 0.674 µM; the “apparent KD of K4 kissing-loop reporter” value under setting [1] turned out to be 0.614 µM; the “apparent KD of K4 kissing-loop reporter” value under setting [2] was 0.594 µM.
For “AGGCCGAGCCAAGGAUAUUGUCAGAGUGAUGUUCGCCAAUACUCCAGCCGCGCCUCAUCAGCUGAGCAAGAAGGUGGUCCUCUCA [theeternabot_exclusion_KL_FMN_B_47]” the same measures were 0.244 µM, 0.199 µM, 0.221 µM, 0.207 µM and 0.209 µM.
Consider “AGGGACGAUAGCGAUACCAGAGGUCGCAAAUUCGCGCCGUUUUUUAGGAAGUGAUGUUUUCUCCCUUGGCAGCGCCCUUAGAGUU [theeternabot_exclusion_KL_Theo_B_47]”, for which the “apparent KD of K4 kissing-loop reporter” value (input ligand: FMN 200 uM) came to 0.881 µM; the “apparent KD of K4 kissing-loop reporter” value (input ligand: arginine 13.2 mM) stood at 0.435 µM; the “apparent KD of K4 kissing-loop reporter” value (input ligand: none) stood at 0.945 µM; the “apparent KD of K4 kissing-loop reporter” value under setting [1] stood at 0.795 µM; the “apparent KD of K4 kissing-loop reporter” value under setting [2] is 0.688 µM.
“AGGUCACCACUACAGUGAUGUUGUGGAGAGCAGGAUAUGCAGAAAUGCAGAAGGGCUCGCUCUCGGUGACCGAAUGAAACAUUCA [Omei KL FMN A SS A v7]”: the “apparent KD of K4 kissing-loop reporter” value by setting is: (input ligand: FMN 200 uM) 0.404 µM; (input ligand: arginine 13.2 mM) 0.67 µM; (input ligand: none) 0.766 µM; under setting [1], 0.476 µM; under setting [2], 0.704 µM.
For “AGUACAAUGGCGGCCGCCACUCAAUGGCAGAUCAAAGAUCUGUAUCACUCAGUGAUGUUGAGUGAGAGGACCGGGCCUUUGUACA [Omei KL Tryp B SS B v9]” the same measures were 0.604 µM, 0.477 µM, 0.5 µM, 0.514 µM and 0.187 µM.
As to “AGUGAUGUUGUGUUGUGUUAGGGAAGUGAUCGAGGACCGGUACGGCCGCCACUCGAGUGAUGAGUGAGUGAUGUUUGUUUAGGGA [whbob_SS_Tryp_A_m8]”, the “apparent KD of K4 kissing-loop reporter” value is 0.926 µM (input ligand: FMN 200 uM); 1.29 µM (input ligand: arginine 13.2 mM); 0.395 µM (input ligand: none); 3.23 µM under setting [1]; 0.375 µM under setting [2].
